Each block holds one substance with its values, some of them ahead of it.
Legend:
[1] = biological target: 70S ribosome with bound wild-type (dark) RF3, rotated post-termination state (E. coli MG1655 K12 | E. coli) (UniProt P0A7I4); assay: single-molecule fluorescence in zero-mode waveguides (factor occupancy with intersubunit FRET); ribosome immobilised through biotinylated MF-UAA mRNA on Neutravidin; Cy5.5-RF1 or Cy5.5-RF2 with 0-200 nM dark RF3, RRF, EF-G, 4 mM GTP; Tris-based polymix buffer pH 7.5; 20°C
[2] = biological target: 70S ribosome on biotinylated mRNA with the UAA stop codon in the A site (no release factor bound) (E. coli) (UniProt P0AG67); assay: as above
[3] = biological target: 70S ribosome on biotinylated mRNA with the UAA stop codon in the A site (no release factor bound) (E. coli) (UniProt P0AG67); assay: single-molecule fluorescence in zero-mode waveguides (factor occupancy with intersubunit FRET); Cy5.5-RF1 and Cy5-RF3 with GTP and the antimicrobial peptide Api137 added; occupancy limited by Cy5.5 photobleaching and movie time (6 min)
[4] = biological target: 70S ribosome with bound Cy5-RF3, rotated post-termination state (E. coli MG1655 K12 | E. coli) (UniProt P0A7I4); assay: single-molecule fluorescence in zero-mode waveguides (factor occupancy with intersubunit FRET); pre-elongated immobilised 70S with the stop codon in the A site; 75 nM Cy5-RF3, 20 nM Cy5.5-RF1, 4 mM GDPCP, polymix buffer, 20°C, no RRF or EF-G
[5] = biological target: 70S ribosome with bound wild-type (dark) RF3, rotated post-termination state (E. coli MG1655 K12 | E. coli) (UniProt P0A7I4); assay: single-molecule fluorescence in zero-mode waveguides (factor occupancy with intersubunit FRET); as a1 with Cy5.5-RF1 and dark RF3, 4 mM GTP, but at 30°C
[6] = biological target: 70S ribosome on biotinylated mRNA with the UAA stop codon in the A site (no release factor bound) (E. coli) (UniProt P0AG67); assay: as above
[7] = biological target: 70S ribosome with bound wild-type (dark) RF3, rotated post-termination state (E. coli MG1655 K12 | E. coli) (UniProt P0A7I4); assay: single-molecule fluorescence in zero-mode waveguides (factor occupancy with intersubunit FRET); Cy5.5-RF1 in the absence of RRF, with and without RF3; first-bound and rebound RF1 events on the immobilised ribosome (Supplementary Figure S2); temperature not given
[8] = biological target: 70S ribosome on biotinylated mRNA with the UAA stop codon in the A site (no release factor bound) (E. coli) (UniProt P0AG67); assay: as above
[9] = biological target: 70S ribosome with bound Cy5-RF3, rotated post-termination state (E. coli MG1655 K12 | E. coli) (UniProt P0A7I4); assay: single-molecule fluorescence in zero-mode waveguides (factor occupancy with intersubunit FRET); ribosome immobilised through biotinylated mRNA; Cy5.5-RF1 and Cy5-RF3 tracked together, 4 mM GTP, Tris-based polymix buffer pH 7.5, 20°C
[10] = biological target: 70S ribosome with bound Cy5-RF3, rotated post-termination state (E. coli MG1655 K12 | E. coli) (UniProt P0A7I4); assay: single-molecule fluorescence in zero-mode waveguides (factor occupancy with intersubunit FRET); as a4 (MF-UAA mRNA, Cy5.5-RF1, Cy5-RF3, GTP) but at 12°C
[11] = biological target: post-termination RF1-70S complex (Cy5.5-RF1 bound to the non-rotated 70S ribosome) (not stated | E. coli) (UniProt P0A7I0); assay: single-molecule fluorescence in zero-mode waveguides (factor occupancy with intersubunit FRET); Cy5-RF3 occupancy on the Cy5.5-RF1-bound non-rotated ribosome with 50% GDP (1:1 ratio of GTP:GDP); triple exponential fit
[12] = biological target: post-termination RF1-70S complex (Cy5.5-RF1 bound to the non-rotated 70S ribosome) (not stated | E. coli) (UniProt P0A7I0); assay: single-molecule fluorescence in zero-mode waveguides (factor occupancy with intersubunit FRET); pre-elongated immobilised 70S with the stop codon in the A site; 75 nM Cy5-RF3, 20 nM Cy5.5-RF1, 4 mM GDP, polymix buffer, 20°C
[13] = biological target: post-termination RF1-70S complex (Cy5.5-RF1 bound to the non-rotated 70S ribosome) (not stated | E. coli) (UniProt P0A7I0); assay: single-molecule fluorescence in zero-mode waveguides (factor occupancy with intersubunit FRET); pre-elongated immobilised 70S with the stop codon in the A site; 75 nM Cy5-RF3, 20 nM Cy5.5-RF1, 4 mM GDPCP, polymix buffer, 20°C, no RRF or EF-G
[14] = biological target: 70S ribosome on biotinylated mRNA with the UAA stop codon in the A site (no release factor bound) (E. coli) (UniProt P0AG67); assay: as above
[15] = biological target: post-termination RF1-70S complex (Cy5.5-RF1 bound to the non-rotated 70S ribosome) (not stated | E. coli) (UniProt P0A7I0); assay: single-molecule fluorescence in zero-mode waveguides (factor occupancy with intersubunit FRET); ribosome immobilised through biotinylated mRNA; Cy5.5-RF1 and Cy5-RF3 tracked together, 4 mM GTP, Tris-based polymix buffer pH 7.5, 20°C
[16] = biological target: 70S ribosome on biotinylated mRNA with the UAA stop codon in the A site (no release factor bound) (E. coli) (UniProt P0AG67); assay: as above
[17] = biological target: 70S ribosome on biotinylated mRNA with the UAA stop codon in the A site (no release factor bound) (E. coli) (UniProt P0AG67); assay: single-molecule fluorescence in zero-mode waveguides (factor occupancy with intersubunit FRET); as a4 (MF-UAA mRNA, Cy5.5-RF1, Cy5-RF3, GTP) but at 12°C

koff [1]: 3.5 s⁻¹
kiAR- (spontaneous and simultaneous dissociation and ribosome rotation from the post-termination ribosome) [2]: 0.04 s⁻¹
mean dwell time on the terminating ribosome in the absence of RF3 (tau 2BD-) [2]: 38 s
Substance: Cy5.5-labeled RF2 (from UniProt P07012 1-365) (natural protein)

k1RD+ (single RF1 binding event in the presence of RRF) [1]: 0.87 s⁻¹
koff [1]: 0.76 s⁻¹
kiAR- (spontaneous and simultaneous dissociation and ribosome rotation from the post-termination ribosome) [2]: 0.027 s⁻¹
kon [2]: 2.1e+07 M⁻¹ s⁻¹
mean dwell time on the terminating ribosome in the absence of RF3 (tau 1BD-) [2]: 66 s
occupancy time with Api137 (photobleaching and movie-time limit) [3]: 300 s
koff [4]: 0.14 s⁻¹
koff [5]: 2.5 s⁻¹
kiAR- (spontaneous and simultaneous dissociation and ribosome rotation from the post-termination ribosome) [6]: 0.072 s⁻¹
k1RD+ (first-bound RF1, no RRF) [7]: 0.77 s⁻¹
k1RD+ (rebound RF1, no RRF) [7]: 1 s⁻¹
kiAR- (first-bound ribosomes, no RRF) [8]: 0.04 s⁻¹
kiAR- (rebound ribosomes, no RRF) [8]: 0.08 s⁻¹
koff [9]: 0.69 s⁻¹
fold slow-down of dissociation at 12°C against 20°C [10]: 2.6 fold
Substance: Cy5.5-labeled RF1 (from UniProt P0A7I0 1-360) (natural protein)

dissociation rate of the slowest phase of a triple exponential [11]: 0.3 s⁻¹
k3off1 (sampling mode, fast phase of a double exponential) [12]: 4.6 s⁻¹
k3off2 (sampling mode, slow phase of a double exponential) [12]: 0.25 s⁻¹
kon [12]: 2e+06 M⁻¹ s⁻¹
k3off1 (sampling mode, fast phase of a double exponential) [13]: 1.1 s⁻¹
k3off2 (sampling mode, slow phase of a double exponential) [13]: 0.18 s⁻¹
kon [13]: 2e+06 M⁻¹ s⁻¹
koff [14]: 0.0164 s⁻¹
k3off1 (sampling mode, fast phase of a double exponential) [15]: 1.3 s⁻¹
k3off2 (sampling mode, slow phase of a double exponential) [15]: 0.3 s⁻¹
kon [15]: 2.3e+06 M⁻¹ s⁻¹
koff [16]: 4 s⁻¹
fold slow-down of dissociation at 12°C against 20°C [17]: 21 fold
Substance: Cy5-RF3 (ybbR-tagged RF3 labelled with Cy5-CoA) (from UniProt P0A7I4 1-529) (natural protein)

From paper PMC10287982
